Experimental findings from patent US20210403547A1 are described below.

This test addresses membrane-bound ligands (TGF-alpha and Epiregulin) on HT-29 cells. As to the kind of experiment: cell-based or functional assay.

Substance Control IgG (antibody) yielded a Mean Ringspot Total Intensity of Fluorescence (internalization into HT-29 cells), 40 ug/mL, 0 min post addition of 94; a Mean Ringspot Total Intensity of Fluorescence (internalization into HT-29 cells), 40 ug/mL, 5 min post addition of 116; a Mean Ringspot Total Intensity of Fluorescence (internalization into HT-29 cells), 40 ug/mL, 15 min post addition of 126; a Mean Ringspot Total Intensity of Fluorescence (internalization into HT-29 cells), 40 ug/mL, 30 min post addition of 124. For the same substance, the Mean Ringspot Total Intensity of Fluorescence (internalization into HT-29 cells), 40 ug/mL, 60 min post addition turned out to be 167; the Mean Ringspot Total Intensity of Fluorescence (internalization into HT-29 cells), 40 ug/mL, 120 min post addition came to 177; the Mean Ringspot Total Intensity of Fluorescence (internalization into HT-29 cells), dose 0.34 ug/ml, 2 h at 37 C is 1410; the Mean Ringspot Total Intensity of Fluorescence (internalization into HT-29 cells), dose 0.69 ug/ml, 2 h at 37 C turned out to be 1480. For the same substance, the Mean Ringspot Total Intensity of Fluorescence (internalization into HT-29 cells), dose 1.38 ug/ml, 2 h at 37 C stood at 1470; the Mean Ringspot Total Intensity of Fluorescence (internalization into HT-29 cells), dose 2.75 ug/ml, 2 h at 37 C is 1570; the Mean Ringspot Total Intensity of Fluorescence (internalization into HT-29 cells), dose 5.5 ug/ml, 2 h at 37 C was found to be 1360; the Mean Ringspot Total Intensity of Fluorescence (internalization into HT-29 cells), dose 11 ug/ml, 2 h at 37 C turned out to be 1390. The same substance had a Mean Ringspot Total Intensity of Fluorescence (internalization into HT-29 cells), dose 22 ug/ml, 2 h at 37 C of 1760; a Mean Ringspot Total Intensity of Fluorescence (internalization into HT-29 cells), dose 44 ug/ml, 2 h at 37 C of 1810; a Mean Ringspot Total Intensity of Fluorescence (internalization into HT-29 cells), dose 88 ug/ml, 2 h at 37 C of 2440.
